± gives the uncertainty stated by the source.

The values that follow come from the supplement of paper PMC9732359.

This series can be described thus: protein stability index of a GFP-peptide fusion (yeast GPS) (PSI 1-4); higher = more stable; sorted into four equal gates, so the index is relative within each strain. A digest of the protocol:
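Tiled 17-residue peptides from yeast proteins were fused downstream of GFP on a plasmid that also expresses Cherry, and the pooled library was carried in yeast. Mid-log cultures grown in leucine-free medium were sorted into four equal gates by GFP/Cherry fluorescence ratio. Plasmids from each gate were PCR-amplified and Illumina-sequenced, and reads were assigned to strains by barcodes. Each peptide's protein stability index is the sum, over gates, of the gate's read frequency multiplied by its gate number.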

For TSNDASNKKETKKKRKP [ITC1], the protein stability index runs as follows: (doa10∆) 3.08 ± 0.089; (pdr5∆) 3.25 ± 0.075; (san1∆) 3.21 ± 0.088; (ubr1∆) 3.29 ± 0.074.
For TSNGLKKNPNWLEEYHP [FAS1], the protein stability index was 3.3 ± 0.17 (doa10∆), 3.22 ± 0.15 (pdr5∆), 3.48 ± 0.098 (san1∆) and 3.38 ± 0.11 (ubr1∆).
TSNNETNNGNDDNETEN [GRR1]: the protein stability index is, setting by setting: (doa10∆) 3.03 ± 0.074; (pdr5∆) 3.28 ± 0.077; (san1∆) 3.14 ± 0.053; (ubr1∆) 2.92 ± 0.055.
For TSQKMKKMVYVLDSMTK [SRP54], in that order: 2.79 ± 0.11, 3.12 ± 0.11, 3.13 ± 0.21 and 2.96 ± 0.078.
For TSRVTGILLLDSLIQLA [YJL039C/NUP192], the protein stability index was 1.85 ± 0.062 (doa10∆), 1.77 ± 0.056 (pdr5∆), 1.59 ± 0.094 (san1∆) and 1.95 ± 0.048 (ubr1∆).
In the case of TSSIFQESFNSVQNLDQ [NUT1], the protein stability index by setting is: (doa10∆) 3.16 ± 0.086; (pdr5∆) 2.64 ± 0.057; (san1∆) 2.98 ± 0.048; (ubr1∆) 3.14 ± 0.054.
Regarding TSSRGRDHKSYSQSPPR [SMC4], the protein stability index worked out at 2.65 ± 0.046 (doa10∆), 2.81 ± 0.056 (pdr5∆), 2.59 ± 0.088 (san1∆) and 2.83 ± 0.038 (ubr1∆).
The sequence TSTDFPGFSKDAENEWN [RPC40] yielded a protein stability index (pdr5∆) of 3.1 ± 0.22.
In the case of TSTDGKKRSKARKETYS [HTB1], the protein stability index came out at 3.07 ± 0.24 (doa10∆) and 3.11 ± 0.14 (pdr5∆).
In turn, TSTGTTIVGVKFNNGVV [PUP1] returned a protein stability index (doa10∆) of 2.55 ± 0.12, a protein stability index (pdr5∆) of 3.14 ± 0.11, a protein stability index (san1∆) of 3.01 ± 0.14 and a protein stability index (ubr1∆) of 2.71 ± 0.095.
On to TSVDGKKRSKVRKETYS [HTB2], for which the protein stability index (doa10∆) amounted to 3.04 ± 0.087, the protein stability index (pdr5∆) is 3.19 ± 0.14, the protein stability index (san1∆) was determined as 3.15 ± 0.18 and the protein stability index (ubr1∆) worked out at 3.31 ± 0.067.
Turning to TSVIQDLSEKILNDIET [BRR2], the protein stability index stood at 2.89 ± 0.1 (doa10∆), 3.3 ± 0.11 (pdr5∆), 3.21 ± 0.061 (san1∆) and 3.09 ± 0.076 (ubr1∆).
Turning to TTDKNTTDDKSMDTKKK [BRN1], the protein stability index was found to be 3.51 ± 0.1 (doa10∆), 3.51 ± 0.084 (pdr5∆), 3.61 ± 0.039 (san1∆) and 3.33 ± 0.053 (ubr1∆).
On to TTDMISVLYQLSTSAFM [YML031W/NDC1], for which the protein stability index turned out to be 1.42 ± 0.095 (doa10∆), 1.64 ± 0.14 (pdr5∆), 1.75 ± 0.24 (san1∆) and 1.14 ± 0.11 (ubr1∆).
For TTNNNNTNNNNTNNNNN [SWI1], the protein stability index runs as follows: (doa10∆) 3.39 ± 0.087; (pdr5∆) 3.5 ± 0.082; (san1∆) 3.43 ± 0.06; (ubr1∆) 3.42 ± 0.079.
The matching figures for TTPKKIKHKHKKVKLAV [RPS31]: 2.19 ± 0.052, 1.99 ± 0.1, 1.34 ± 0.2 and 1.91 ± 0.059.
For TTPVKLGPGIYCDPNTQ [RRP40], in that order: 2.65 ± 0.077, 2.2 ± 0.076, 2.74 ± 0.06 and 2.35 ± 0.05.
The matching figures for TTQGGLTSVTRHGFNRS [RPO21]: 3.14 ± 0.088, 3.04 ± 0.08, 3.15 ± 0.077 and 3.26 ± 0.071.
For TTTTANINEVKKASDLV [NUT1], the protein stability index reads like this: (doa10∆) 3.01 ± 0.06; (pdr5∆) 3.07 ± 0.067; (san1∆) 2.84 ± 0.067; (ubr1∆) 2.62 ± 0.074.
In the case of TTYTYQQPNPLQDLISV [ROX3], the protein stability index (doa10∆) worked out at 1.67 ± 0.059, the protein stability index (pdr5∆) was 1.81 ± 0.069, the protein stability index (san1∆) turned out to be 1.7 ± 0.11 and the protein stability index (ubr1∆) is 2.08 ± 0.1.
As for TVASSKVGYTLPSHIIS [RPL4A], the protein stability index amounted to 3.19 ± 0.076 (doa10∆), 3.02 ± 0.052 (pdr5∆), 3.09 ± 0.035 (san1∆) and 3.25 ± 0.043 (ubr1∆).
Regarding TVEALDFREKALYIAMM [RET1], the protein stability index came out at 2.73 ± 0.1 (doa10∆), 3.03 ± 0.096 (pdr5∆), 3.29 ± 0.076 (san1∆) and 2.59 ± 0.082 (ubr1∆).
As for TVKLYLPEILNVLCVNI [ECM29], the protein stability index by setting is: (doa10∆) 1.46 ± 0.047; (pdr5∆) 1.49 ± 0.045; (san1∆) 1.5 ± 0.074; (ubr1∆) 1.42 ± 0.045.
For TVKTNDELMVIYISNLV [RPN8], in that order: 1.66 ± 0.12, 1.5 ± 0.063, 1.51 ± 0.15 and 1.29 ± 0.078.
As for TVLCTPTGGKAKLSEGT [RPS27B], the protein stability index by setting is: (doa10∆) 3.25 ± 0.11; (pdr5∆) 3.18 ± 0.079; (san1∆) 3.15 ± 0.045; (ubr1∆) 3.15 ± 0.1.
For the sequence TVNGQARDLATMTYEEV [FAS1], the protein stability index by setting is: (doa10∆) 2.96 ± 0.08; (pdr5∆) 3.15 ± 0.056; (san1∆) 3.03 ± 0.065; (ubr1∆) 2.95 ± 0.045.
On to TVPEYLKTADNRDRSFQ [PGD1], for which the protein stability index is 3.08 ± 0.084 (doa10∆), 3.07 ± 0.079 (pdr5∆), 3.3 ± 0.038 (san1∆) and 3.07 ± 0.049 (ubr1∆).
The matching figures for TVPNINFSGLNGGITNT [YOR098C/NUP1]: 3.45 ± 0.15, 3.35 ± 0.22, 3.74 ± 0.11 and 3.67 ± 0.12.
As for TVQENELLKSSLQKAGS [AAR2], the protein stability index runs as follows: (doa10∆) 3.17 ± 0.11; (pdr5∆) 3.21 ± 0.088; (san1∆) 3.01 ± 0.073; (ubr1∆) 3.13 ± 0.084.
For the sequence TVRVDKASTYGELVLDI [SNF12], the protein stability index is, setting by setting: (doa10∆) 2.38 ± 0.06; (pdr5∆) 2.38 ± 0.053; (san1∆) 2.02 ± 0.086; (ubr1∆) 1.81 ± 0.044.
Take TVTSLDVVYALKRQGRT [HHF1]: the protein stability index runs as follows: (doa10∆) 3.55 ± 0.18; (pdr5∆) 3.26 ± 0.13; (san1∆) 3.18 ± 0.086; (ubr1∆) 2.31 ± 0.076.
In the case of TVVGNASFGKNLQIRQL [DSN1], the protein stability index is, setting by setting: (pdr5∆) 2.7 ± 0.17; (ubr1∆) 2.97 ± 0.2.
For the sequence TVVTVVSTAKFSGKYLK [RPL22A], the protein stability index by setting is: (doa10∆) 3.18 ± 0.12; (pdr5∆) 3.13 ± 0.083; (san1∆) 3.38 ± 0.17; (ubr1∆) 2.96 ± 0.065.
In the case of TWIQQFKSTMLQVSEKD [ARP7], the protein stability index worked out at 1.89 ± 0.065 (doa10∆), 1.86 ± 0.066 (pdr5∆), 1.27 ± 0.14 (san1∆) and 1.73 ± 0.053 (ubr1∆).
For TWSLILNECLKTIQINN [YML031W/NDC1], the protein stability index reads like this: (doa10∆) 1.88 ± 0.057; (pdr5∆) 1.62 ± 0.058; (san1∆) 1.3 ± 0.1; (ubr1∆) 1.86 ± 0.042.
Regarding TWTNSKIFIKDPKFVNS [YML103C/NUP188], the protein stability index was 2.27 ± 0.11 (doa10∆), 2.05 ± 0.06 (pdr5∆), 1.71 ± 0.11 (san1∆) and 1.73 ± 0.062 (ubr1∆).
In turn, TYASVTGLFTLERTDLK [RPN7] returned a protein stability index (doa10∆) of 3.43 ± 0.23 and a protein stability index (ubr1∆) of 2.62 ± 0.21.
In the case of TYDKETITDLIEQGIPK [SIR4], the protein stability index (doa10∆) was 3.3 ± 0.049, the protein stability index (pdr5∆) stood at 3.39 ± 0.051, the protein stability index (san1∆) worked out at 3.35 ± 0.04 and the protein stability index (ubr1∆) came to 3.41 ± 0.043.
Consider TYLTQEILILINDPTNK [SIN4], for which the protein stability index turned out to be 1.31 ± 0.06 (doa10∆), 1.55 ± 0.051 (pdr5∆), 1.36 ± 0.091 (san1∆) and 1.26 ± 0.05 (ubr1∆).
